Data: PMC8591539 (The EMBO Journal, 2021)

Biological target: RBX1 (human, UniProt P62877 1-108)
Experiment: cryo-EM structure

binding result: binds
B1: DDB1- and CUL4-associated factor 1 (DCAF1), full length, wild type (natural protein)
chain: not shown
